Reference: the nanobody polyreactivity screen of Harvey et al. (2022)

Assay: yeast display, Sf9 membrane polyspecificity reagent, FACS + sequencing; frameworks hold sequencing errors
How it was run: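 After 36–48 hours of galactose induction, yeast (Saccharomyces cerevisiae BJ5465) displaying a synthetic nanobody library were stained at 4 °C for 1 hour with 10% biotinylated, detergent-solubilized Sf9 membrane reagent. Streptavidin microbeads enriched the stained cells before FACS sorting into low and high (top ~1%) gates on anti-HA and streptavidin fluorescence. Each clone's polyreactivity label reflects its gate of origin.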

| Sequence | polyreactivity (PSR sort gate) |
| --- | --- |
| QVQLVESGGGLVQAGGSLRLSCAASGRIFPVNALGWYRQAPGKEREFVAAISYSGVSTRYADSVKGRFTISRDKAKNTVYLQMNSLKPEDTAVYYCAARMSVREDYWGQGTQVNVSS | high polyreactivity |
| QVQLVESVGGLVQAGGSLRLSCAASGRTFFKYAMGLYRQAPGKERELVAAITGRGGSTYADSVKGRFTISRDNAKNTVYLQMNSLKPEDTAVYYCAKVYQRGAQYYYYKYDYWGQGTQVTVSS | high polyreactivity |
| QVQLVESGGGLVQAGGSLRLSCAASGRIFYEYAMGWYRQAPGKDRELVAAISNSGGSTYYAHSVKGRFTISRDNAKNTVYLQMNSLQPEDTAVYYCAATVRLPNGVRYGYWGQGTQVTGSS | high polyreactivity |
| QVQLVESGGGLVQAGGSLRLSCAASGRTFKPNAMGWYRQAPGKERELVASINDVGSTNYADSVKGRFTISRDNAKNTVYLQMNSLKPEDTAVYYCAADPYWYPYYGYYILYDYWGQGTHVTVSS | low polyreactivity |
| QVQLVESGGGLVQAGGSLRLSCAASGFTFDSYDMGWYRQAPGKERELVAAISKSGGTTYYADSLKGRFTISRDNANNTVYLQMNSLKPEDTAVFYCAAGGPRGGYGRYYYWGPGTQVTVSS | high polyreactivity |
| QVQLVESGGGLVQAGGSLRLSCAASGRIFGHYVMGWYRQAPGKERELVAAISYSGGSTYYADSVKGRFTISRDNAKITVYLQMISLKPEDTAVYYCAARETQDSPYGAYYYWGQGTQVTVSS | high polyreactivity |
| QVQLVESRGGLVQAGGSLRLSCAASGSTFTYYAMGWYRQAPGKERELVAAITFRGDSTYYADSVKVRFTISRDNAKNTVYFQMNSLKPEDTAVYYWGQGTQVTVSS | low polyreactivity |
| QVQLVESGGGLVQAGGSLRLSCAASGRTFIANAMGWYRKAPRKERELLAVITLNGGSTYYADSVKGRFTISRDNAKKTVYLQMNSLKPEDTAVYYCNARYYPLYSKSYDSWGQGTQVPVSS | low polyreactivity |
| QVQLVESGGGLVQAGGSLRLSCAASGRIFSRYAMGWYRQAPGKERELVAAITQSGTSTYYADSVKGRFTISRDNAKNTVYLQMNSLKPEDTAVYYCAAAKHSWRPSYYWGGYWGQGTQVTVSS | low polyreactivity |
| QVQLVESGGGLVQAGGSLRLSCAASGSTFTINFMGWYRQAPGKERELVAAINGGGRTNYADSVKGRFTISRDNAKNTVYLQMNSLNPEDTAVYYCAAEWRRYEYSDSWEYDYWGQGTQVTVSS | low polyreactivity |
| QVQLVESGGGLVQAGGSLRLSCAASGRIFHFIAMGWYRQAPGKERELVATITKRGGRTYYADSVKGRFTISRDNAKNTVYLQMNSLKPEDTAVYYCNADQSRYSAVSGYDYWGQGTQVTVSS | high polyreactivity |
| QVQLVESGGGLDQAGGSLRLSCAASGSIFSGYAMGWYRQAPGKERELVAGISSRGGRTYYADSVKGRFTISRDNAKNTVYLQMNSLKPEDTAVYYCAARWSRSRTSDRYNYWGQGTQVTVSS | high polyreactivity |
| QVQLVESGGGLVQAVGSLRLSCAASGLIFFYYSMGWYRPAPGKERELVAAIRTNYADSVKGRFTISRDNAKNTVYLQMNSLKREDTAAYYCAAESSQTPTSAFDYWGQGTQVTVSS | low polyreactivity |
| QVQLVESGGGLVQAGGSLRLSCAASGSIFQKNAMGWYRQAPGKERELVAVITRGGTSTYYADSVKGRFTISRDNAKNTVYLQMNSLKAEDTAVYSCAAKADKRLDYWGQGTQVTVSS | low polyreactivity |
| QVQLVESGGGVVQAGGRLRLSCAASGFTFGSNDMGWYRQAPGKETELVAAIDGSGDTYYADSVKGRFTISRDNAKNTVDLQMNSLKPEDTAVYYCAADVIYWFSGEYDYWGQGTQVTVSS | low polyreactivity |
| QVQLVESGGRLVQAGGSLRLSCAASGRTFEIYSMGRYRHAPGKERELVAAITSGGSTYYADSVKGRFTISRDNAKNTVYLQMNSLKPEDTAVYYCNAYLYYDAHGVDYWGQGTQVTVSS | high polyreactivity |
| QVQLVESGGGLFQARGSLRLSCAASGLTFWYYDMGWYRQAPGKERELFAAINSGGSTYYADSEKGRFTISRDNAKNTVYLEINRLKPEDTAVYYCNKDFSKTWRYASYYYWGQGTQVTVSS | low polyreactivity |
| QVQLVESGGGLVQAGGSLRLSCAASGRIFKVNTMGWYRQAPGKVRELVASIRGGGSTNYADSVKGRFTISRDNAKNTVYLQMNSLKPEDTAVYYCAAGTSKPTPIYGYWGQGTQVTGSS | low polyreactivity |
| QVQLVESGGGLVQAGGSLRLSCAASGRTFQRNAMGWYRQAPGKERELVAAITTGSRTYYADSVKGRFTISRDNAKNTVYLQMNSLKPEDTAFYYCAAVATRRDYGYWGQGTQVTVLS | high polyreactivity |
| QVQLVESGGGLVQAGGSLRLSCAASGRTFVNNAMGWYRQAPGKERELVASIRYIGGSTYYADSVKGRFTISRDNEKNTVYLQMNSLKPEDTAVYYCAALAGRRPYDYWGQGTQVTVSS | high polyreactivity |
| QVQLVESGGGLVQAGGSLRLSCAAYVSIFGDNALGWYRQAPGKEMELVAAISSDGNTNYADSVKGRFTISRDNAKNTVYLQMNSLKPEDTAVYYCAARWGYRRVRANSFYYWGQGTQVTVSS | low polyreactivity |
